Changes are numbered by the printed parent chain. Where two headings read alike, the source gives them in different places.
Experiments:
[1] = target: Cynomolgus monkey IL-33 (cynomolgus monkey); test: cell-based or functional assay
Human IL-33 [2] = target: T1, Human IL-33 (human, UniProt O95760 95-270, limits assumed); test: cell-based or functional assay
T1 sequence: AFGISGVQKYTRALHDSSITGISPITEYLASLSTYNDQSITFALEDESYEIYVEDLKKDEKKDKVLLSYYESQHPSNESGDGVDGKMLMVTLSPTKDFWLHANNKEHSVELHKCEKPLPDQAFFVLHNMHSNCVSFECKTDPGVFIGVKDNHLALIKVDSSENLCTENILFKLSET

Human IL-33 [3] = target: T1, Human IL-33; test: cell-based or functional assay; remark: listed apart in the source
Human IL-33 [4] = target: T1, Human IL-33; test: cell-based or functional assay; remark: listed apart in the source
Cynomolgus monkey IL-33 [5] = target: T2, Cynomolgus monkey IL-33 (cynomolgus monkey, UniProt A0A2K5W3I1 95-269); test: cell-based or functional assay
T2 sequence: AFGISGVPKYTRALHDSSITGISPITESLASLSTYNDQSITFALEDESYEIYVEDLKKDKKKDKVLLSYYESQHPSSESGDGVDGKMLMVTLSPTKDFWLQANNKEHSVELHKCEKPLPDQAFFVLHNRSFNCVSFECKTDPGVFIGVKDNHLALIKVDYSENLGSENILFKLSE

IL-1α = target: T3, IL-1α (human, UniProt P01583 113-271); test: SPR (BIAcore 2000), antibody captured on Protein A, analyte at 500 nM
T3 sequence (looked up): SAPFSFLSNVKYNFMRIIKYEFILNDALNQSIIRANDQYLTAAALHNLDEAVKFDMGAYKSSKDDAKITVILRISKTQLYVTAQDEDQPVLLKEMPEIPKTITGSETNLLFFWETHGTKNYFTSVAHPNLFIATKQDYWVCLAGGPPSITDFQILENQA
Protocol: (§1) Protein A (Calbiochem) is coupled via free amine groups to carboxyl groups on flow cells 1 and 2 of a CM5 biosensor chip (GE Healthcare) using a mixture of N-ethyl-N-(dimethylaminopropyl)-carbodiimide (EDC) and N-hydroxysuccinimide (NHS). To capture positive control antibodies, Rabbit anti-Goat IgG (Fc specific) is coupled to flow cell 3, and Rabbit anti-Rat IgG (Fc specific) is coupled to flow cell 4 (both from Jackson ImmunoResearch). Flow cells are monitored with a flow rate of 30 μL/minute using a buffer containing 0.01 M HEPES, pH 7.4, 150 mM NaCl, 0.005% surfactant P20. Antibody 43 is captured on flow cell 2 to yield a total of 300 to 800 response units (RU; results reflect flow cell 2 minus flow cell 1). Binding tests are followed by a regeneration step using glycine-HCl (pH 1.5) between each cycle. Flow cell 1 is used as a control to monitor non-specific binding of analytes tested. The exemplified antibody is tested with all analytes of the human IL-1 protein family as listed at 500 nM concentration.

IL-1β = IL-1β (human, UniProt P01584 117-269); test: as above
Protocol: as §1

IL-1RA = IL-1RA (human, UniProt P18510 26-177); test: as above
Protocol: as §1

IL-18 = target: T4, IL-18 (human, UniProt Q14116 37-193); test: as above
T4 sequence (looked up): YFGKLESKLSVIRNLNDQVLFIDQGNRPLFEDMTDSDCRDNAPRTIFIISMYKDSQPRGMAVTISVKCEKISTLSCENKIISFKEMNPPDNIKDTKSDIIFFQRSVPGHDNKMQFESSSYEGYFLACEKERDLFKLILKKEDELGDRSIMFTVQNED
Protocol: as §1

IL-36α = target: T5, IL-36α (human, UniProt Q9UHA7 6-158); test: as above
T5 sequence (looked up): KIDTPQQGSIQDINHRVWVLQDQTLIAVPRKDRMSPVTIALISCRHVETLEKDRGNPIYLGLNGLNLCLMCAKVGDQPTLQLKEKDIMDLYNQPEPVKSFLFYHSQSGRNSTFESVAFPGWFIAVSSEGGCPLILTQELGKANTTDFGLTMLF
Protocol: as §1

IL-36β = target: T6, IL-36β (human, UniProt Q9NZH7-2 5-157); test: as above
T6 sequence (looked up): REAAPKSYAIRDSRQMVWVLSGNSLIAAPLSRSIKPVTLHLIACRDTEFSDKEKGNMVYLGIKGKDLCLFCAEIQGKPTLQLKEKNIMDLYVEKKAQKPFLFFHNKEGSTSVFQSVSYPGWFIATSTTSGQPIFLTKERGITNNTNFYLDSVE
Protocol: as §1

IL-36γ = target: T7, IL-36γ (human, UniProt Q9NZH8 18-169); test: as above
T7 sequence (looked up): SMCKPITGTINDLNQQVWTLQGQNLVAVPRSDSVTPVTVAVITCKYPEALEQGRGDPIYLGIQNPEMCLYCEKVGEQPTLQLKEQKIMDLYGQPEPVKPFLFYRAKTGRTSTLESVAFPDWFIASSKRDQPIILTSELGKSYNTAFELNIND
Protocol: as §1

IL-36RA = target: T8, IL-36RA (human, UniProt Q9UBH0 2-155); test: as above
T8 sequence (looked up): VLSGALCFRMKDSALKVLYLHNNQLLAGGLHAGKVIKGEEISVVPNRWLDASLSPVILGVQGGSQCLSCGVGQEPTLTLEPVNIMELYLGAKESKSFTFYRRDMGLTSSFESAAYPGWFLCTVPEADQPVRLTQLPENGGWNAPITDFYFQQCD
Protocol: as §1

IL-37 = target: T9, IL-37 (human, UniProt Q9NZH6 46-218, limits assumed); test: as above
T9 sequence (looked up): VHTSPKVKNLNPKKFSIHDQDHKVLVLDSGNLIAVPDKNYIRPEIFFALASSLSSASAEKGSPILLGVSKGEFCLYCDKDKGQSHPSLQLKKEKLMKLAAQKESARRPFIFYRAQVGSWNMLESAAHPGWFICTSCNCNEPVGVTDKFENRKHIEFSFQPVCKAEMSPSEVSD
Protocol: as §1

Human IL-33 [6] = target: T1, Human IL-33; test: SPR (Biacore T100/T200), antibody captured on Protein A, 37° C., 1:1 model
Protocol: (§2) A CM4 chip containing immobilized Protein A (generated using standard NHS-EDC amine coupling) on all four flow cells (Fc) is used to employ a capture method. Antibody samples are prepared at 10 μg/mL in running buffer. Mouse, rat, and rabbit IL-33 samples are prepared at final concentrations of 1000, 500, 250, 125, 63, 31, 16, and 0 nM in running buffer. Human and Cynomologus IL-33 samples are prepared at final concentrations of 250, 125, 63, 31, 16, 8, 4, 2, 1, and 0 nM in running buffer. Each analysis cycle involves the steps of (1) capturing antibody samples on separate flow cells (Fc2, Fc3, or Fc4); (2) injecting 200 μL of IL-33 over all flow cells at 100 μL/min; (3) returning to buffer flow for a minimum of 10 min at 100 μL/min to monitor complex dissociation; (4) regenerating the chip surface with two sequential injections of 7.5 microliters of glycine, pH1.5; and (5) equilibrating the chip surface for 5 minutes prior to repeating the cycle. Each IL-33 concentration is injected in duplicate. Data is processed using standard double-referencing and fit to a 1:1 binding model using Biacore T100 Evaluation software, version 2.0.1, to determine the association rate (on-rate, kₒₙ, M⁻¹s⁻¹ units) and the dissociation rate (off-rate, koff, s⁻¹ units). The equilibrium dissociation constant (KD) is calculated from the relationship KD=koff/kₒₙ, and is in molar units. Three experimental replicates (n) are conducted for the binding of Antibody 43 to human and cynomolgus monkey IL-33.

Cynomolgus monkey IL-33 [7] = target: T2, Cynomolgus monkey IL-33; test: as above
Protocol: as §2

Cynomolgus monkey IL-33 [8] = target: T2, Cynomolgus monkey IL-33; test: SPR affinities
Protocol: as §2, with “Three experimental replicates (n) are conducted for the binding of Antibody 43 to human and cynomolgus monkey IL-33.” left out

Human IL-33 [9] = target: T1, Human IL-33; test: SPR (Biacore), antibody captured on Protein A, 37° C., 1:1 model
Protocol: as §2

Cynomolgus monkey IL-33 [10] = target: T2, Cynomolgus monkey IL-33; test: as above
Protocol: as §2

IL-1RA, sequence (P18510 26-177 limits assumed): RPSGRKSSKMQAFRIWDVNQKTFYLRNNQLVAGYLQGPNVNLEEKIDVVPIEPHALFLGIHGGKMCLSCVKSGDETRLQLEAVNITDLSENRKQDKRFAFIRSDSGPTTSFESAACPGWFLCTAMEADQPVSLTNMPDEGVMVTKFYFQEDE

**Q.** With “Human monomeric ST2 (IL1RL1) (from UniProt Q01638 19-328) (receptor)” as the molecule, how does the IC50 in the in vitro NFκB-GEC-luciferase activity assay [1] read?
**A.** The IC50 in the in vitro NFκB-GEC-luciferase activity assay was 0.175 nM.

**Q.** And the IC50 in the in vitro NFκB-GEC-luciferase activity assay (Human IL-33 [2])?
**A.** The IC50 in the in vitro NFκB-GEC-luciferase activity assay was 0.426 nM.

**Q.** And the IC50 of inhibition of IL-33-induced GM-CSF secretion from human mast cells (Human IL-33 [2])?
**A.** Its IC50 of inhibition of IL-33-induced GM-CSF secretion from human mast cells is 7.6 nM.

B1: Antibody 43 (antibody, human IgG4 S228P, kappa, F234A L235A, V domains shown)
VH: EVQLVETGGGLIQPGGSLRLSCAASGFTFSFYAMSWVRQAPGKGLEWVSAISGSGGSTYYADSVKGRFTISRDNSKNTLYLQMNSLRAEDTAVYYCARTIHGIRAAYDAFIIWGQGTLVTVSS
VL: EIVLTQSPGTLSLSPGERATLSCRASQSVGINLSWYQQKPGQAPRLLIYGASHRLTGIPDRFSGSGSGTDFTLTISRLEPEDFAVYYCHQYSQPPPFTFGGGTKVEIKR
notes: Derived from Antibody 54 by engineering to reduce potential immunogenicity; expressed in CHO cells; also called Ab 43; Exemplified Antibody
**Q.** How did the “IC50 of inhibition of IL-33-induced GM-CSF secretion from human mast cells” value (Human IL-33 [3]) turn out when B1 was run?
**A.** Its value is 0.3 nM.

**Q.** What about the “IC50 in the in vitro NFκB-GEC-luciferase activity assay” value (Human IL-33 [4]) of the same molecule?
**A.** Its value is 0.33 nM.

**Q.** What about the “IC50 in the in vitro NFκB-GEC-luciferase activity assay” value (Cynomolgus monkey IL-33 [5]) of the same molecule?
**A.** The value was 1.92 nM.

**Q.** Does B1 bind (IL-1α)?
**A.** Result: no binding (tested: 500 nM)

**Q.** Does B1 bind (IL-1β)?
**A.** Result: no binding (tested: 500 nM)

**Q.** Does B1 bind (IL-1RA)?
**A.** Result: no binding (tested: 500 nM)

**Q.** Does B1 bind (IL-18)?
**A.** Result: no binding (tested: 500 nM)

**Q.** Does B1 bind (IL-36α)?
**A.** Result: no binding (tested: 500 nM)

**Q.** Does B1 bind (IL-36β)?
**A.** Result: no binding (tested: 500 nM)

**Q.** Does B1 bind (IL-36γ)?
**A.** Result: no binding (tested: 500 nM)

**Q.** Does B1 bind (IL-36RA)?
**A.** Result: no binding (tested: 500 nM)

**Q.** Does B1 bind (IL-37)?
**A.** Result: no binding (tested: 500 nM)

**Q.** And the Kd (Human IL-33 [6])?
**A.** Its Kd is 0.049 nM.

**Q.** What about the koff (Human IL-33 [6]) of the same molecule?
**A.** The koff was 7.2e-05 s⁻¹.

**Q.** And the kon (Human IL-33 [6])?
**A.** The kon was 1.5e+06 M⁻¹ s⁻¹.

**Q.** And the Kd (Cynomolgus monkey IL-33 [7])?
**A.** The Kd was 0.338 nM.

**Q.** What about the koff (Cynomolgus monkey IL-33 [7]) of the same molecule?
**A.** The koff was 0.00051 s⁻¹.

**Q.** And the kon (Cynomolgus monkey IL-33 [7])?
**A.** The kon was 1.5e+06 M⁻¹ s⁻¹.

B2: Antibody 75 (antibody, human IgG4 S228P, kappa, F234A L235A, V domains shown)
VH: B1 VH with F31S, I100L
VL: B1 VL with L55A, P94S
notes: Human IgG4 antibody; 3-53 heavy chain framework and A27 light chain framework with the CDRs of Antibody 23; also called Ab 75
**Q.** What does the source list for B2?
**A.** fold difference in species cross-reactivity (affinity to cynomolgus IL-33 against human IL-33) (Cynomolgus monkey IL-33 [8]): ~850 fold; IC50 in the in vitro NFκB-GEC-luciferase activity assay (Human IL-33 [4]): 0.286 nM; Kd (Human IL-33 [9]): 0.0145 nM; koff (Human IL-33 [9]): 2.6e-05 s⁻¹; kon (Human IL-33 [9]): 1.7e+06 M⁻¹ s⁻¹; Kd (Cynomolgus monkey IL-33 [10]): 12.4 nM; koff (Cynomolgus monkey IL-33 [10]): 0.019 s⁻¹; kon (Cynomolgus monkey IL-33 [10]): 1.7e+06 M⁻¹ s⁻¹
